US20210230265A1 (Sanofi, published 2021)

Target: T1, interleukin-33 (IL-33) (human, UniProt O95760 95-270, limits assumed)
T1 construct: This is endogenous circulating IL-33 in treated patients, not a recombinant construct; also called total IL-33
T1 sequence (looked up): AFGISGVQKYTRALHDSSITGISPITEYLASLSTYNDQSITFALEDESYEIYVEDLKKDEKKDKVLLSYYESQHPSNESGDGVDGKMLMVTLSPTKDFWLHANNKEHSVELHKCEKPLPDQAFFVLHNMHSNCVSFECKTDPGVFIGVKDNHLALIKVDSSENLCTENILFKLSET
Test: Target mediated drug disposition (TMDD) model of total IL-33 vs. time in serum, driven by PopPK-predicted PK, all studies; an in vivo model estimate, not a direct binding assay; in vivo TMDD model estimate from clinical total IL-33 data, not a direct binding assay
Description: Total TL-33 vs. time was modelled using a target mediated drug disposition (TMDD) approach. All studies were included in the analysis. PopPK predicted PK for each individual was used to drive the total IL-33 dynamics. […] (This was based on the baseline IL-33 assumption of ½ lower limit of quantification (LLOQ).) Based on the computed threshold, 300 mg Q2W, 300 mg Q4W, and 300 mg Q8W may be able to meet the threshold target for achieving 90% target engagement.

B1: SAR440340 (antibody, human IgG4 S228P, kappa, V domains shown)
VH: VQLVESGGNLEQPGGSLRLSCTASGFTFSRSAMNWVRRAPGKGLEWVSGISGSGGRTYYADSVKGRFTISRDNSKNTLYLQMNSLSAEDTAAYYCAKDSYTTSWYGGMDVWGHGTTVTVSS
VL: IQMTQSPSSVSASVGDRVTITCRASQGIFSWLAWYQQKPGKAPKLLIYAASSLQSGVPSRFSGSGSGTDFTLTISSLQPEDFAIYYCQQANSVPITFGQGTRLEIKR
notes: Human anti-IL-33 antibody; also called REGN3500; itepekimab
  Kd: 7.01 nM
